# Tested on: Pin1 R14A (SEQ ID NO:2)
substance,measurement,value
phosphokinase A (PKA),"MALDI-TOF of partial tryptic digest, mass gain of peptide 69-74",the peak corresponding to residues 69-74 of Pin1 gains ~80 Daltons after treatment with PKA
same,"proline isomerase activity (protease-coupled assay, rate constant of isomerization)",phosphorylation of Pin1 R14A at position 71 by PKA inhibits the ability of the enzyme to isomerizes substrate

# Source: patent publication US20060074222
